Results on 16 molecules are retold here after patent US20260191981A1 (ARROWHEAD PHARMACEUTICALS, published 2026).

The chains are these.
B1: Fab0061-siRNA conjugate (Fab, V domains shown)
VH: EVQLVESGGGLVQPGGSLRLSCATSGYTFTSYWMHWVRQAPGKGLEWVAEINPTNGRVNYIEKFKSRITLSVDKSKSTVYLQMNSLRAEDTAVYYCARGTRAYHYWGQGTLVTVSS
VL: DIQLTQSPSSLSASVGDRVTITCRASDGLYSNLAWYQQKPGKAPKLLIYDATKLASGVPSRFSGSGSGTDYTLTISSLQPEDFATYYCQHFWGTPLTFGQGTKVEIKR
modifications: siRNA-linker on a reduced cysteine; chain and residue not stated
notes: also called Fab0061 (BLI conjugate columns)
B2: Fab0002-siRNA conjugate (Fab, V domains shown)
VH: EVQLVQSGAEVKKPGASVKVSCKASGYTFTSYWMHWVRQAPGQRLEWIGEINPTNGRTNYIEKFKSRATLTVDKSASTAYMELSSLRSEDTAVYYCARGTRAYHYWGQGTMVTVSS
VL: B1 VL with L4M, G28N, A43S, I48V, K53N, S56D
modifications: siRNA-linker on a reduced cysteine; chain and residue not stated
notes: also called Fab0002 (BLI conjugate columns)
B3: Fab0066-siRNA conjugate (Fab, V domains shown)
VH: B1 VH with M34V
VL: B1 VL with T52F, K53N
modifications: siRNA-linker on a reduced cysteine; chain and residue not stated
notes: also called Fab0066 (BLI conjugate columns)
B4: Fab0071-siRNA conjugate (Fab, V domains shown)
VH: B1 VH with T30N, V58T
VL: B1 VL with T52R, K53N
modifications: siRNA-linker on a reduced cysteine; chain and residue not stated
notes: also called Fab0071 (BLI conjugate columns)
B5: Fab0074-siRNA conjugate (Fab, V domains shown)
VH: B1 VH with T30K, V58T
VL: B1 VL with T52K, K53N
modifications: siRNA-linker on a reduced cysteine; chain and residue not stated
notes: also called Fab0074 (BLI conjugate columns)
B6: Fab0064-siRNA conjugate (Fab, V domains shown)
VH: B1 VH
VL: B1 VL with T52K, K53N
modifications: siRNA-linker on a reduced cysteine; chain and residue not stated
notes: also called Fab0064 (BLI conjugate columns)
B7: Fab0068-siRNA conjugate (Fab, V domains shown)
VH: B1 VH with M34V
VL: B1 VL
modifications: siRNA-linker on a reduced cysteine; chain and residue not stated
notes: also called Fab0068 (BLI conjugate columns)
B8: Fab0067-siRNA conjugate (Fab, V domains shown)
VH: B1 VH with M34V, V58T
VL: B1 VL with G28N, S31R
modifications: siRNA-linker on a reduced cysteine; chain and residue not stated
notes: also called Fab0067 (BLI conjugate columns)
B9: Fab0060-siRNA conjugate (Fab, V domains shown)
VH: B1 VH with M34V, V58T
VL: B1 VL
modifications: siRNA-linker on a reduced cysteine; chain and residue not stated
notes: also called Fab0060 (BLI conjugate columns)
B10: Fab0070-siRNA conjugate (Fab, V domains shown)
VH: B1 VH with Y27F, V58T
VL: B1 VL with G28K, K53L
modifications: siRNA-linker on a reduced cysteine; chain and residue not stated
notes: also called Fab0070 (BLI conjugate columns)
B11: Fab0072-siRNA conjugate (Fab, V domains shown)
VH: B1 VH with T30N, V58F
VL: B1 VL with G28N, S31R, T52R, K53N
modifications: siRNA-linker on a reduced cysteine; chain and residue not stated
notes: also called Fab0072 (BLI conjugate columns)
B12: Fab0063-siRNA conjugate (Fab, V domains shown)
VH: B1 VH
VL: B1 VL with K53R
modifications: siRNA-linker on a reduced cysteine; chain and residue not stated
notes: also called Fab0063 (BLI conjugate columns)
B13: Fab0073-siRNA conjugate (Fab, V domains shown)
VH: B1 VH with T30K, V58T
VL: B1 VL with G28N, S31R
modifications: siRNA-linker on a reduced cysteine; chain and residue not stated
notes: also called Fab0073 (BLI conjugate columns)
B14: Fab0062-siRNA conjugate (Fab, V domains shown)
VH: B1 VH
VL: B1 VL with T52F, K53N
modifications: siRNA-linker on a reduced cysteine; chain and residue not stated
notes: also called Fab0062 (BLI conjugate columns)
B15: Fab0065-siRNA conjugate (Fab, V domains shown)
VH: B1 VH with M34V, V58S
VL: B1 VL with G28N, S31R
modifications: siRNA-linker on a reduced cysteine; chain and residue not stated
notes: also called Fab0065 (BLI conjugate columns)
B16: Fab0069-siRNA conjugate (Fab, V domains shown)
VH: B1 VH with M34V, V58S
VL: B1 VL
modifications: siRNA-linker on a reduced cysteine; chain and residue not stated
notes: also called Fab0069 (BLI conjugate columns)

Numbering of substitutions follows the chain as printed.

T2 sequence (chain, as listed by the source): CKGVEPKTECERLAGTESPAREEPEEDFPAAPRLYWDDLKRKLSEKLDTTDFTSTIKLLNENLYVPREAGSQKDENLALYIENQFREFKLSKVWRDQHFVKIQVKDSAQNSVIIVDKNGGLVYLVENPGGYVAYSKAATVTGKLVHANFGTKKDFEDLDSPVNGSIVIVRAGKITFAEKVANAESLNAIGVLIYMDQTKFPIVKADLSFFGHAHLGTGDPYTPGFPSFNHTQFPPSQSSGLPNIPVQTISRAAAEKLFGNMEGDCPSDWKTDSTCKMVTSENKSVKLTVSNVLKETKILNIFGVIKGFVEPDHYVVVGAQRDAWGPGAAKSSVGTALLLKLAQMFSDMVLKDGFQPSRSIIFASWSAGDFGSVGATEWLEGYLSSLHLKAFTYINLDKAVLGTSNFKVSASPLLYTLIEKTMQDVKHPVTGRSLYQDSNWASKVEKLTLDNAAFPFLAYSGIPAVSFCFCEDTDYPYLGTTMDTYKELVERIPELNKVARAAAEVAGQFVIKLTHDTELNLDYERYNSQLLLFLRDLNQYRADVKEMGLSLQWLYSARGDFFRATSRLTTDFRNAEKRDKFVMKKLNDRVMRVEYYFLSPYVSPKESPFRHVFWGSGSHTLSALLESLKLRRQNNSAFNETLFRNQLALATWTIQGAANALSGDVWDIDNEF

The target in the first assay is T1, biotinylated hTfR1 (Acro Bio p/n TFR-H82E5) (human, UniProt P02786 89-760, biotinylated; site not stated).
T1 construct: Bought reagent of the BLI assay
T1 sequence (P02786 89-760 limits assumed): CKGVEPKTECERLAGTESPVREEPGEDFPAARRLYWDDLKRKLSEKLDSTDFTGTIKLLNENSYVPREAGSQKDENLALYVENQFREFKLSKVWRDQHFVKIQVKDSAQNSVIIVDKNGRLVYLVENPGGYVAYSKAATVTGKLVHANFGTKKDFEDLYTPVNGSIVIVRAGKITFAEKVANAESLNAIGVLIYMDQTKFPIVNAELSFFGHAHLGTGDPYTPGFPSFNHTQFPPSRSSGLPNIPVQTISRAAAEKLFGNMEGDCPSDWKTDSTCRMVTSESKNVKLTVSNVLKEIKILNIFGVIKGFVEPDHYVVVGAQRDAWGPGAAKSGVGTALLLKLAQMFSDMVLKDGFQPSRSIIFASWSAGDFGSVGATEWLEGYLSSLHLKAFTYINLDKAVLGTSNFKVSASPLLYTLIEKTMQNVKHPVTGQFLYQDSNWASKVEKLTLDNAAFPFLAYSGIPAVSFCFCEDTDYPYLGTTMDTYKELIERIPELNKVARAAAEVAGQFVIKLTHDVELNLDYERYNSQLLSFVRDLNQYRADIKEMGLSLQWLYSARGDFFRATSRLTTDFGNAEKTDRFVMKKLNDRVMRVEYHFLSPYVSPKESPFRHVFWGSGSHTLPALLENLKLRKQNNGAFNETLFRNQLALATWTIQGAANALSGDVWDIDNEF
Kind of assay: BLI, Octet RH16, biotinylated TfR1 on streptavidin sensor; Fab-siRNA conjugate. As to the method: Samples were analyzed via Bio-Layer Interferometry (BLI) to determine kinetics against human transferrin receptor 1 (hTfR1). Briefly, an Octet RH16 (Sartorius) was used for BLI measurements using streptavidin biosensors (Sartorius p/n 18-5019) to irreversibly immobilize biotinylated hTfR1 (Acro Bio p/n TFR-H82E5). […] Sample diluent was prepared in house and is composed of 10 mM PBS pH 7.4 (150 mM NaCl), 0.01% BSA, 0.002% Tween 20, and 0.01% kathon. A 96-well plate was used for analysis, filled with required samples solutions and a row of 10 μg/mL hTfR1 for loading of the streptavidin sensors. For each sample, one well was reserved for a reference sensor control (non-specific binding evaluation with no hTfR1 on surface in highest sample concentration) and a sample reference (buffer only on a hTfR1 loaded sample). One well was also reserved for a second replicate of one of the five concentrations to evaluate sensor and method variability. Eight channels were used for the highest sensitivity offered by the Octet RH16. For each assay performed, the steps were as follows: a sensor check for baseline evaluation of sensor alone in buffer was performed for 30 seconds, followed by loading of the cTfR1 for 60 seconds, then a baseline check for 90 seconds to verify stability of cTfR1 immobilized to sensor surface, then sample association for 180 seconds, and finally sample dissociation for 300 seconds. A shake speed of 1000 was used for all steps. Sample results are analyzed in Octet Analysis software.
For orientation: Biolayer interferometry detects binding as a change in optical thickness at a sensor tip.
Molecule B1 displayed a Kd of 1.9 nM, a koff of 0.000527 s⁻¹ and a kon of 278000 M⁻¹ s⁻¹.
Molecule B2 displayed a Kd of 16.7 nM, a koff of 0.00349 s⁻¹ and a kon of 209000 M⁻¹ s⁻¹.
For B3, binding was put at a Kd of 1.81 nM, the koff was 0.000469 s⁻¹ and the kon was determined as 259000 M⁻¹ s⁻¹.
On the same counts, the results for B4 are 2.67 nM, 0.000716 s⁻¹ and 268000 M⁻¹ s⁻¹.
For B5 the same measures were 2.78 nM, 0.000793 s⁻¹ and 286000 M⁻¹ s⁻¹.
For B6 the same measures were 1.44 nM, 0.000393 s⁻¹ and 273000 M⁻¹ s⁻¹.
On to B7, for which the Kd was found to be 1.69 nM, the koff amounted to 0.000432 s⁻¹ and the kon was determined as 256000 M⁻¹ s⁻¹.
B8 had a Kd of 0.623 nM, a dissociation rate constant (koff) of 0.000167 s⁻¹ and a kon of 268000 M⁻¹ s⁻¹.
On the same counts, the results for B9 are 3.65 nM, 0.00109 s⁻¹ and 298000 M⁻¹ s⁻¹.
Molecule B10 displayed a dissociation constant (Kd) of 3.71 nM, a koff of 0.000974 s⁻¹ and an association rate constant (kon) of 263000 M⁻¹ s⁻¹.
On the same counts, the results for B11 are 0.898 nM, 0.000262 s⁻¹ and 292000 M⁻¹ s⁻¹.
In turn, B12 came in with a Kd of 2.72 nM, a koff of 0.000775 s⁻¹ and a kon of 285000 M⁻¹ s⁻¹.
B13 had a Kd of 2.1 nM, a koff of 0.000615 s⁻¹ and an on-rate constant (kon) of 292000 M⁻¹ s⁻¹.
On the same counts, the results for B14 are 4.47 nM, 0.00123 s⁻¹ and 275000 M⁻¹ s⁻¹.
As to B15, the Kd came to 2.64 nM, the koff was 0.00082 s⁻¹ and the kon came to 310000 M⁻¹ s⁻¹.
In the case of B16, the Kd came to 5.45 nM, the koff amounted to 0.00164 s⁻¹ and the kon is 301000 M⁻¹ s⁻¹.

Another assay concerns the target T2, biotinylated cTfR1 (Acro Bio p/n TFR-C8249) (cynomolgus monkey, UniProt H9EXL1 89-760 (rhesus entry), biotinylated; site not stated).
T2 construct: Bought reagent of the BLI assay
The assay is described as above. The procedure: Samples were analyzed via Bio-Layer Interferometry (BLI) to determine kinetics against cynomolgus monkey transferrin receptor 1 (cTfR1). Briefly, an Octet RH16 (Sartorius) was used for BLI measurements using streptavidin biosensors (Sartorius p/n 18-5019) to irreversibly immobilize biotinylated cTfR1 (Acro Bio p/n TFR-C8249). […] Sample diluent was prepared in house and is composed of 10 mM PBS pH 7.4 (150 mM NaCl), 0.01% BSA, 0.002% Tween 20, and 0.01% kathon. A 96-well plate was used for analysis, filled with required samples solutions and a row of 10 μg/mL cTfR1 for loading of the streptavidin sensors. For each sample, one well was reserved for a reference sensor control (non-specific binding evaluation with no cTfR1 on surface in highest sample concentration) and a sample reference (buffer only on a cTfR1 loaded sample). One well was also reserved for a second replicate of one of the five concentrations to evaluate sensor and method variability. Eight channels were used for the highest sensitivity offered by the Octet RH16. For each assay performed, the steps were as follows: a sensor check for baseline evaluation of sensor alone in buffer was performed for 30 seconds, followed by loading of the cTfR1 for 60 seconds, then a baseline check for 90 seconds to verify stability of cTfR1 immobilized to sensor surface, then sample association for 180 seconds, and finally sample dissociation for 300 seconds. A shake speed of 1000 was used for all steps. Sample results were analyzed in Octet Analysis software.
In turn, B1 registered a dissociation constant (Kd) of 6.85 nM, a koff of 0.0017 s⁻¹ and a kon of 248000 M⁻¹ s⁻¹.
In turn, B2 came in with a Kd of 25.1 nM, an off-rate (koff) of 0.00732 s⁻¹ and a kon of 292000 M⁻¹ s⁻¹.
For B3, binding was characterised by a dissociation constant (Kd) of 10 nM, the dissociation rate constant (koff) was determined as 0.00335 s⁻¹ and the kon was 334000 M⁻¹ s⁻¹.
For B4 the same measures were 18.1 nM, 0.00429 s⁻¹ and 234000 M⁻¹ s⁻¹.
B5 registered a Kd of 12.2 nM, a koff of 0.00321 s⁻¹ and a kon of 264000 M⁻¹ s⁻¹.
On the same counts, the results for B6 are 5.96 nM, 0.0019 s⁻¹ and 319000 M⁻¹ s⁻¹.
On the same counts, the results for B7 are 8.89 nM, 0.00221 s⁻¹ and 249000 M⁻¹ s⁻¹.
Molecule B8 yielded an equilibrium dissociation constant (Kd) of 5.02 nM, a koff of 0.0019 s⁻¹ and a kon of 378000 M⁻¹ s⁻¹.
For B9 the same measures were 9.11 nM, 0.00252 s⁻¹ and 276000 M⁻¹ s⁻¹.
B10: binding was characterised by a dissociation constant (Kd) of 16.9 nM, the off-rate (koff) amounted to 0.00413 s⁻¹ and the kon came out at 244000 M⁻¹ s⁻¹.
For B11 the same measures were 10.8 nM, 0.00398 s⁻¹ and 368000 M⁻¹ s⁻¹.
Molecule B12 came in with a Kd of 8.37 nM, an off-rate constant (koff) of 0.0022 s⁻¹ and a kon of 263000 M⁻¹ s⁻¹.
Consider B13, for which binding was characterised by a dissociation constant (Kd) of 9.23 nM, the koff worked out at 0.00321 s⁻¹ and the on-rate constant (kon) came to 348000 M⁻¹ s⁻¹.
Consider B14, for which the Kd amounted to 11 nM, the koff worked out at 0.00263 s⁻¹ and the kon turned out to be 238000 M⁻¹ s⁻¹.
On the same counts, the results for B15 are 5.63 nM, 0.0013 s⁻¹ and 231000 M⁻¹ s⁻¹.
On to B16, for which the Kd stood at 9.58 nM, the koff turned out to be 0.00245 s⁻¹ and the kon came to 256000 M⁻¹ s⁻¹.

A word on the Kd: it is the constant that tells how readily two partners part at equilibrium. Low readings indicate tighter binding, high ones weaker binding. The koff is a measure of how fast the partners let go of each other. High values mean fast dissociation, low ones slow dissociation. In general, kon refers to a measure of how fast the partners come together. Lower therefore signals slower complex formation.
